Assay results reported in patent US20030138450A1.

Target: AMA1/E, refolded recombinant Plasmodium falciparum (3D7) AMA-1 ectodomain (amino acids 83-531) with N- and C-terminal histidine tags (Plasmodium falciparum 3D7) (UniProt P22621)
Test: ELISA on plate-coated refolding mixtures of r-AMA1/E (GSH/GSSG 1/0.1 mM and 1/0.25 mM), against r-AMA1/E diluted in phosphate buffer with EDTA alone

rat monoclonal antibody 4G2dc1
fold ELISA reactivity over the phosphate buffer control: 5 fold
